Test: Photometric activity determination of 7β-HSDH and mutants (decrease in absorbance at 340 nm, DHCA reduction with NADPH)
Format: biochemical
Details: Table 4, variants modified at position 64; 10 mM DHCA, NADPH, KPi pH 8.0
Protocol: The activity of the 7β-HSDH and of the mutants was determined using a photometric assay, where the decrease in absorbance was measured at 340 nm over a period of 30 seconds.
The expression [R64E] in the first column of the table means that the arginine (R) in position 64 of the protein sequence had been replaced by glutamic acid (E) in the mutant in question. The respective amino acid is abbreviated using the international one-letter code. Analogously, [R64D] means that an aspartic acid has been introduced at this position.

Molecule | Specific activity | Volumetric activity
7β-HSDH [R64D]: 7β-HSDH mutant, arginine in position 64 exchanged for aspartic acid (D) (protein, UniProt A4ECA9 1-263, looked up, variant R64D) 7beta-hydroxysteroid …: MNLREKYGEWGLILGATEGVGKAFCEKIAAGGMNVVMVGRREEKLNVLAGEIRETYGVETKVVDADFSQPGAAETVFAATEGLDMGFMSYVACLHSFGKIQDTPWEKHEAMINVNVVTFLKCFHHYMRIFAAQDRGAVINVSSMTGISSSPWNGQYGAGKAFILKMTEAVACECEGTGVDVEVITLGTTLTPSLLSNLPGGPQGEAVMKIALTPEECVDEAFEKLGKELSVIAGQRNKDSVHDWKANHTEDEYIRYMGSFYRD | 32.1 U/mg | 641.6 U/ml
7β-HSDH [R64C]: 7β-HSDH mutant, R in position 64 replaced by C (protein, UniProt A4ECA9 1-263, looked up, variant R64C) 7beta-hydroxysteroid …: MNLREKYGEWGLILGATEGVGKAFCEKIAAGGMNVVMVGRREEKLNVLAGEIRETYGVETKVVCADFSQPGAAETVFAATEGLDMGFMSYVACLHSFGKIQDTPWEKHEAMINVNVVTFLKCFHHYMRIFAAQDRGAVINVSSMTGISSSPWNGQYGAGKAFILKMTEAVACECEGTGVDVEVITLGTTLTPSLLSNLPGGPQGEAVMKIALTPEECVDEAFEKLGKELSVIAGQRNKDSVHDWKANHTEDEYIRYMGSFYRD | 14.19 U/mg | 269.7 U/ml
7β-HSDH [R64A]: 7β-HSDH mutant, R in position 64 replaced by A (protein, UniProt A4ECA9 1-263, looked up, variant R64A) 7beta-hydroxysteroid …: MNLREKYGEWGLILGATEGVGKAFCEKIAAGGMNVVMVGRREEKLNVLAGEIRETYGVETKVVAADFSQPGAAETVFAATEGLDMGFMSYVACLHSFGKIQDTPWEKHEAMINVNVVTFLKCFHHYMRIFAAQDRGAVINVSSMTGISSSPWNGQYGAGKAFILKMTEAVACECEGTGVDVEVITLGTTLTPSLLSNLPGGPQGEAVMKIALTPEECVDEAFEKLGKELSVIAGQRNKDSVHDWKANHTEDEYIRYMGSFYRD | 13.77 U/mg | 273 U/ml
7β-HSDH [R64P]: 7β-HSDH mutant, R in position 64 replaced by P (protein, UniProt A4ECA9 1-263, looked up, variant R64P) 7beta-hydroxysteroid …: MNLREKYGEWGLILGATEGVGKAFCEKIAAGGMNVVMVGRREEKLNVLAGEIRETYGVETKVVPADFSQPGAAETVFAATEGLDMGFMSYVACLHSFGKIQDTPWEKHEAMINVNVVTFLKCFHHYMRIFAAQDRGAVINVSSMTGISSSPWNGQYGAGKAFILKMTEAVACECEGTGVDVEVITLGTTLTPSLLSNLPGGPQGEAVMKIALTPEECVDEAFEKLGKELSVIAGQRNKDSVHDWKANHTEDEYIRYMGSFYRD | 19.1 U/mg | 402.0 U/ml
7β-HSDH [R64W]: 7β-HSDH mutant, R in position 64 replaced by W (protein, UniProt A4ECA9 1-263, looked up, variant R64W) 7beta-hydroxysteroid …: MNLREKYGEWGLILGATEGVGKAFCEKIAAGGMNVVMVGRREEKLNVLAGEIRETYGVETKVVWADFSQPGAAETVFAATEGLDMGFMSYVACLHSFGKIQDTPWEKHEAMINVNVVTFLKCFHHYMRIFAAQDRGAVINVSSMTGISSSPWNGQYGAGKAFILKMTEAVACECEGTGVDVEVITLGTTLTPSLLSNLPGGPQGEAVMKIALTPEECVDEAFEKLGKELSVIAGQRNKDSVHDWKANHTEDEYIRYMGSFYRD | 10.1 U/mg | 214 U/ml
7β-HSDH [R64V]: 7β-HSDH mutant, R in position 64 replaced by V (protein, UniProt A4ECA9 1-263, looked up, variant R64V) 7beta-hydroxysteroid …: MNLREKYGEWGLILGATEGVGKAFCEKIAAGGMNVVMVGRREEKLNVLAGEIRETYGVETKVVVADFSQPGAAETVFAATEGLDMGFMSYVACLHSFGKIQDTPWEKHEAMINVNVVTFLKCFHHYMRIFAAQDRGAVINVSSMTGISSSPWNGQYGAGKAFILKMTEAVACECEGTGVDVEVITLGTTLTPSLLSNLPGGPQGEAVMKIALTPEECVDEAFEKLGKELSVIAGQRNKDSVHDWKANHTEDEYIRYMGSFYRD | 15.1 U/mg | 407.7 U/ml
7β-HSDH [R64S]: 7β-HSDH mutant, R in position 64 replaced by S (protein, UniProt A4ECA9 1-263, looked up, variant R64S) 7beta-hydroxysteroid …: MNLREKYGEWGLILGATEGVGKAFCEKIAAGGMNVVMVGRREEKLNVLAGEIRETYGVETKVVSADFSQPGAAETVFAATEGLDMGFMSYVACLHSFGKIQDTPWEKHEAMINVNVVTFLKCFHHYMRIFAAQDRGAVINVSSMTGISSSPWNGQYGAGKAFILKMTEAVACECEGTGVDVEVITLGTTLTPSLLSNLPGGPQGEAVMKIALTPEECVDEAFEKLGKELSVIAGQRNKDSVHDWKANHTEDEYIRYMGSFYRD | 20.1 U/mg | 333.7 U/ml
7β-HSDH [R64I]: 7β-HSDH mutant, R in position 64 replaced by I (protein, UniProt A4ECA9 1-263, looked up, variant R64I) 7beta-hydroxysteroid …: MNLREKYGEWGLILGATEGVGKAFCEKIAAGGMNVVMVGRREEKLNVLAGEIRETYGVETKVVIADFSQPGAAETVFAATEGLDMGFMSYVACLHSFGKIQDTPWEKHEAMINVNVVTFLKCFHHYMRIFAAQDRGAVINVSSMTGISSSPWNGQYGAGKAFILKMTEAVACECEGTGVDVEVITLGTTLTPSLLSNLPGGPQGEAVMKIALTPEECVDEAFEKLGKELSVIAGQRNKDSVHDWKANHTEDEYIRYMGSFYRD | 9.83 U/mg | 171 U/ml
7β-HSDH [R64G]: 7β-HSDH mutant, R in position 64 replaced by G (protein, UniProt A4ECA9 1-263, looked up, variant R64G) 7beta-hydroxysteroid …: MNLREKYGEWGLILGATEGVGKAFCEKIAAGGMNVVMVGRREEKLNVLAGEIRETYGVETKVVGADFSQPGAAETVFAATEGLDMGFMSYVACLHSFGKIQDTPWEKHEAMINVNVVTFLKCFHHYMRIFAAQDRGAVINVSSMTGISSSPWNGQYGAGKAFILKMTEAVACECEGTGVDVEVITLGTTLTPSLLSNLPGGPQGEAVMKIALTPEECVDEAFEKLGKELSVIAGQRNKDSVHDWKANHTEDEYIRYMGSFYRD | 12.36 U/mg | 223 U/ml
7β-HSDH [R64F]: 7β-HSDH mutant, R in position 64 replaced by F (protein, UniProt A4ECA9 1-263, looked up, variant R64F) 7beta-hydroxysteroid …: MNLREKYGEWGLILGATEGVGKAFCEKIAAGGMNVVMVGRREEKLNVLAGEIRETYGVETKVVFADFSQPGAAETVFAATEGLDMGFMSYVACLHSFGKIQDTPWEKHEAMINVNVVTFLKCFHHYMRIFAAQDRGAVINVSSMTGISSSPWNGQYGAGKAFILKMTEAVACECEGTGVDVEVITLGTTLTPSLLSNLPGGPQGEAVMKIALTPEECVDEAFEKLGKELSVIAGQRNKDSVHDWKANHTEDEYIRYMGSFYRD | 10.5 U/mg | 216 U/ml
7β-HSDH [R64T]: 7β-HSDH mutant, R in position 64 replaced by T (protein, UniProt A4ECA9 1-263, looked up, variant R64T) 7beta-hydroxysteroid …: MNLREKYGEWGLILGATEGVGKAFCEKIAAGGMNVVMVGRREEKLNVLAGEIRETYGVETKVVTADFSQPGAAETVFAATEGLDMGFMSYVACLHSFGKIQDTPWEKHEAMINVNVVTFLKCFHHYMRIFAAQDRGAVINVSSMTGISSSPWNGQYGAGKAFILKMTEAVACECEGTGVDVEVITLGTTLTPSLLSNLPGGPQGEAVMKIALTPEECVDEAFEKLGKELSVIAGQRNKDSVHDWKANHTEDEYIRYMGSFYRD | 27.4 U/mg | 450.5 U/ml
7β-HSDH [R64K]: 7β-HSDH mutant, R in position 64 replaced by K (protein, UniProt A4ECA9 1-263, looked up, variant R64K) 7beta-hydroxysteroid …: MNLREKYGEWGLILGATEGVGKAFCEKIAAGGMNVVMVGRREEKLNVLAGEIRETYGVETKVVKADFSQPGAAETVFAATEGLDMGFMSYVACLHSFGKIQDTPWEKHEAMINVNVVTFLKCFHHYMRIFAAQDRGAVINVSSMTGISSSPWNGQYGAGKAFILKMTEAVACECEGTGVDVEVITLGTTLTPSLLSNLPGGPQGEAVMKIALTPEECVDEAFEKLGKELSVIAGQRNKDSVHDWKANHTEDEYIRYMGSFYRD | 15.1 U/mg | 296.5 U/ml
7β-HSDH [R64Y]: 7β-HSDH mutant, R in position 64 replaced by Y (protein, UniProt A4ECA9 1-263, looked up, variant R64Y) 7beta-hydroxysteroid …: MNLREKYGEWGLILGATEGVGKAFCEKIAAGGMNVVMVGRREEKLNVLAGEIRETYGVETKVVYADFSQPGAAETVFAATEGLDMGFMSYVACLHSFGKIQDTPWEKHEAMINVNVVTFLKCFHHYMRIFAAQDRGAVINVSSMTGISSSPWNGQYGAGKAFILKMTEAVACECEGTGVDVEVITLGTTLTPSLLSNLPGGPQGEAVMKIALTPEECVDEAFEKLGKELSVIAGQRNKDSVHDWKANHTEDEYIRYMGSFYRD | 9.7 U/mg | 220.3 U/ml
7β-HSDH [R64L]: 7β-HSDH mutant, R in position 64 replaced by L (protein, UniProt A4ECA9 1-263, looked up, variant R64L) 7beta-hydroxysteroid …: MNLREKYGEWGLILGATEGVGKAFCEKIAAGGMNVVMVGRREEKLNVLAGEIRETYGVETKVVLADFSQPGAAETVFAATEGLDMGFMSYVACLHSFGKIQDTPWEKHEAMINVNVVTFLKCFHHYMRIFAAQDRGAVINVSSMTGISSSPWNGQYGAGKAFILKMTEAVACECEGTGVDVEVITLGTTLTPSLLSNLPGGPQGEAVMKIALTPEECVDEAFEKLGKELSVIAGQRNKDSVHDWKANHTEDEYIRYMGSFYRD | 20.9 U/mg | 334 U/ml

Same assay, conditions: qualitative statement

activity compared with the wild-type enzyme | Molecule
increase in the specific activity | 7β-HSDH [R64D]: 7β-HSDH mutant, arginine in position 64 exchanged for aspartic acid (D) (protein, UniProt A4ECA9 1-263, looked up, variant R64D) 7beta-hydroxysteroid …: MNLREKYGEWGLILGATEGVGKAFCEKIAAGGMNVVMVGRREEKLNVLAGEIRETYGVETKVVDADFSQPGAAETVFAATEGLDMGFMSYVACLHSFGKIQDTPWEKHEAMINVNVVTFLKCFHHYMRIFAAQDRGAVINVSSMTGISSSPWNGQYGAGKAFILKMTEAVACECEGTGVDVEVITLGTTLTPSLLSNLPGGPQGEAVMKIALTPEECVDEAFEKLGKELSVIAGQRNKDSVHDWKANHTEDEYIRYMGSFYRD
increase in the specific activity | 7β-HSDH [R64T]: 7β-HSDH mutant, R in position 64 replaced by T (protein, UniProt A4ECA9 1-263, looked up, variant R64T) 7beta-hydroxysteroid …: MNLREKYGEWGLILGATEGVGKAFCEKIAAGGMNVVMVGRREEKLNVLAGEIRETYGVETKVVTADFSQPGAAETVFAATEGLDMGFMSYVACLHSFGKIQDTPWEKHEAMINVNVVTFLKCFHHYMRIFAAQDRGAVINVSSMTGISSSPWNGQYGAGKAFILKMTEAVACECEGTGVDVEVITLGTTLTPSLLSNLPGGPQGEAVMKIALTPEECVDEAFEKLGKELSVIAGQRNKDSVHDWKANHTEDEYIRYMGSFYRD
